We go through one molecule from paper PMC4967898, “Peptides interfering with protein-protein interactions in the ethylene signaling pathway delay tomato fruit ripening” (Scientific Reports, 2016).

For the test, the target named is T1, LeETR1 (Solanum lycopersicum, UniProt Q41342).
T1 construct: made in house; host or cells: E. coli
T1 sequence (Q41342 1-754): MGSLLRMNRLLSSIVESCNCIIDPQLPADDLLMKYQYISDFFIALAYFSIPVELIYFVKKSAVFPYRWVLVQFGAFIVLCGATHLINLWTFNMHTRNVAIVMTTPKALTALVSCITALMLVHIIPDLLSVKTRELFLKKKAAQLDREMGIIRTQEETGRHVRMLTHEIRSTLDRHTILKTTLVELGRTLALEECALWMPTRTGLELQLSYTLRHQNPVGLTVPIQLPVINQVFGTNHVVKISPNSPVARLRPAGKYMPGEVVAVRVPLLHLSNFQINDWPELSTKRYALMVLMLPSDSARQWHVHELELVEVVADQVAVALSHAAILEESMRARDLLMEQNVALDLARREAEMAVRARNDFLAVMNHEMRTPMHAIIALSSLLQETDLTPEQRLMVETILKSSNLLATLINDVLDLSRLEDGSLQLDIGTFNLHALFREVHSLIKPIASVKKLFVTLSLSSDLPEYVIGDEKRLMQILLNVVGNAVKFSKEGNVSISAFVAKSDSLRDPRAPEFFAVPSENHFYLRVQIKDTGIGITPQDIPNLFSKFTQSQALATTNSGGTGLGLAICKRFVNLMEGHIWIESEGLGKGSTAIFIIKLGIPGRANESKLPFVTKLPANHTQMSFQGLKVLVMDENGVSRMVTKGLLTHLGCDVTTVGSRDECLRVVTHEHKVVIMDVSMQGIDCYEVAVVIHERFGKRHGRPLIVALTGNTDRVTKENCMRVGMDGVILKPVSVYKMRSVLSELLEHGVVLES
Nature of the test: MST interaction of labeled LeETR1 with LeEIN2^462–1316. Format: binding, tomato. The note with it: 0.4 μM LeETR1 labeled with Alexa Fluor 488 succinimidyl-ester, LeEIN2^462–1316 4.69 nM to 9.6 μM, 50 mM Tris-HCl pH 8.0, 300 mM NaCl, 0.015% (w/v) Fos-Choline-16, 80% MST power, independent triplicates, mean +/− standard deviation, read-out: Kd of LeEIN2-LeETR1 complex formation. From the text: Protein-protein interaction of LeEIN2 and LeETR1 was studied by microscale thermophoresis (MST). Thermophoresis, the motion of molecules in a temperature gradient, strongly depends on the hydration-shell, the charge and the size of the moving molecules. Typically, at least one of these features changes when a protein-protein interaction occurs. Thus, MST represents a highly sensitive and reliable tool to study protein-protein interactions. By recording the motion of a fluorescence-labeled molecule in the presence of increasing concentrations of a putative binding partner, the dissociation constant (Kd) reflecting the affinity of the interaction and the stability of the complex can be calculated. Recombinant LeETR1 was labeled with the fluorescent dye Alexa Fluor 488 and 0.4 μM of labeled LeETR1 was mixed with increasing concentrations of LeEIN2^462–1316 until saturation was reached (9.6 μM as final concentration). Binding of receptor and EIN2 was observed as a clear and strong response in the MST signal. […]
Figure 1 Interaction studies of tomato ETR1 and EIN2 via MST. […] Normalized fluorescence as MST signal is plotted against increasing LeEIN2^462–1316 (●) concentrations as described. […]

B1: LeEIN2^462–1316: recombinant C-terminal part of tomato EIN2, expressed in E. coli (protein)
chain: LKSASSRFDAQAFLQTHVPEPYSECNQLGASNAMFGLVEGSSQKQEGAFHVEKSLVSHPDLSTKDPDQLLPESLLDFEKVHQLATIDESKSETTFSAPAVVHPEVPVSAGASPSVKSVCNEVSGVVSVDTSVFNTETVDVAEKTLRIEGDMANDRDDGDSWEEPEEAIKGVSENAQSFISDGPGSYKSLSGKLEDTGSGTGSLSRLAGLGRAARRQLTEALNEFWGQLFDYHGVATAEAKSKKLDIILGLDSKMNPKPAPASLKVESSAYIPSGSARIPEPLINSHVYSPKQQFASNIVDSAYRVPKEPSSTSSMWSNHMKLVGAYVQSSNSNMLDSGERRYSSMRIPATSAGYDQQPATVHGYQITAYLNQLAKERGSDYLNGQLESPSPRSVSSLTSNYAEPLARVSGQKPQSGVSSRAPPGFGNVPVGRNNSMQPTNTTSVDHSSTETAESVAGSANSKKYYSLPDISGRYVPRQDSIVSDARAQWYNSMGFGQSGGRSTYEQAYMSGSLRAGGPQRYEHSPKVCRDAFSLQYSSNSGTGSLWSRQPFEQFGVAGKPDVGSGDHGTVLSSSAQESTSTVDLEAKLLQSFRSCIVKLLKLEGSEWLFRQDDGADEDLIGRIAAREKFLYEAETREISRLTNIGESHFSSNRKPGSAPKPEEMDYTKFLVMSVPHCGEGCVWKVDLIISFGVWCIHRILELSLMESRPELWGKYTYVLNRLQGIVDLAFSKPHSPTSHCFCLQIPAGRQQKASPPPISNGNLPPQAKQGRGKCTTAAMLLEMIKDVETAISCRKGRTGTAAGDVAFPKGKENLASVLKRYKRRLSNKPVGNQEVAGVAGPRKVTLSASSPPFVL
modifications: unlabeled in the MST titration of labeled LeETR1; Alexa Fluor 488 label in the reverse MST titration; Alexa Fluor 568 succinimidyl-ester label in the FRET assay; left off: His10, end not stated, state
notes: recombinant C-terminal part of tomato EIN2, expressed in E. coli
In the case of B1, the Kd (as a rule, the concentration at which binding is half-saturated) came out at 0.619 µM.
